Experimental data reported in publication PMC2719906 (Nature, 2008).

B1: N-WASPC (N-WASP residues 193-501) (domain or fragment)
chain: KRLTKADIGTPSNFQHIGHVGWDPNTGFDLNNLDPELKNLFDMCGISEAQLKDRETSKVIYDFIEKTGGVEAVKNELRRQAPPPPPPSRGGPPPPPPPPHSSGPPPPPARGRGAPPPPPSRAPTAAPPPPPPSRPGVVVPPPPPNRMYPPPPPALPSSAPSGPPPPPPLSMAGSTAPPPPPPPPPPPGPPPPPGLPSDGDHQVPASSGNKAALLDQIREGAQLKKVEQNSRPVSCSGRDALLDQIRQGIQLKSVSDGQESTPPTPAPTSGIVGALMEVMQKRSKAIHSSDEDEDDDDEEDFQDDDEWED

Tests used:
[1] = molecular target: EspFU R47 (full 47-residue fifth repeat of EspFU) (enterohaemorrhagic E. coli (EHEC, …, UniProt P0DJ88 268-314)); experiment: ITC
[2] = molecular target: B1; experiment: ITC
[3] = molecular target: T1, WASP GBD (GTPase binding domain, residues 242-310) (UniProt P42768 242-310); experiment: NMR titration
T1 sequence (looked up): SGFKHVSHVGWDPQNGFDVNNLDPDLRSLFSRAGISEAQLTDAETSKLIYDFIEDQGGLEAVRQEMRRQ

Work on B1 yielded a Kd [1] of 35 nM.

B2: EspFU R33 (N-terminal 33-residue fragment of the fifth repeat) (domain or fragment)
chain: LPDVAQRLMQHLAEHGIQPARNMAEHIPPAPNW
B2 was tested, and the Kd [2] was 35 nM and the “stoichiometry N” value [3] was 1 EspFU:GBD.

B3: EspFU R18 peptide (peptide)
peptide: LPDVAQRLMQHLAEHGIQ
B3 was tested, and the Kd [2] was 4000 nM.
